We go through 14 molecules from patent publication US20220041718A1 (AUTOLUS, published 2022).

Substitutions are numbered along the chain they refer to. Names may count otherwise.

The target of test [1] is T1, Recombinant purified TRBC1 (human, UniProt P01850 1-129, limits assumed).
T1 construct: Construct not described (may be a soluble TCR carrying TRBC1); also called TCR beta constant region 1; soluble recombinant biotinylated TRBC1
Nature of the test: SPR, IgG captured on anti-human Fc, TRBC1 as analyte. An excerpt:
(§1) A series S CM5 sensor chip was immobilised via amine coupling, with an anti-human Fc capture antibody to a density of 9000-10000 RU, using a Biacore T200 instrument. HBS-P+ buffer was used as running buffer in all experimental conditions. The test anti-TRBC2 antibodies (Table 1) were captured on flow cells 2, 3 and 4 to a density of 100-300 RU. Recombinant purified TRBC1 or TRBC2 at known concentrations were used as the ‘analyte’ and injected over the respective flow cells with 150s contact time and 300s dissociation at 30 μl/minute of flow rate. In each experiment, flow cell 1 was unmodified and used for reference subtraction. A ‘0 concentration’ sensorgram of buffer alone was used as a double reference subtraction to factor for drift. Data were fit to a 1:1 Langmuir binding model. Since a capture system was used, a local Rₘₐₓ parameter was used for the data fitting in each case.

Test [2] has as its target T2, Recombinant purified TRBC2 (human, UniProt A0A5B9 1-129, limits assumed).
T2 construct: Construct not described (may be a soluble TCR carrying TRBC2); also called TCR beta constant region 2; soluble recombinant biotinylated TRBC2
Nature of the test: SPR, IgG captured on anti-human Fc, TRBC2 as analyte.
Source text: as §1

T1 sequence (P01850 1-129 limits assumed): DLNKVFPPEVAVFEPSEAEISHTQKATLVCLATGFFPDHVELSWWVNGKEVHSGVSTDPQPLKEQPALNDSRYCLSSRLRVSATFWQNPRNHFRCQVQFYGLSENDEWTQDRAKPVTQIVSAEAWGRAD
T2 sequence (A0A5B9 1-129 limits assumed): as the sequence (P01850 1-129 limits assumed) above, with N3K, K4N, E9K, F36Y counted along it

B1: hJovi-1 variant IgG, VH T28K, Y32F, A100N, N103Q; VL unmutated (antibody, V domains shown)
VH: QVQLVQSGAEVKKPGASVKVSCKASGYKFTGFVMHWVRQAPGQGLEWMGFINPYNDDIQSNERFRGRVTMTRDTSISTAYMELSRLRSDDTAVYYCARGNGYQFDGAYRFFDFWGQGTMVTVSS
VL: DIVMTQSPLSLPVTPGEPASISCRSSQRLVHSNGNTYLHWYLQKPGQSPRLLIYRVSNRFPGVPDRFSGSGSGTDFTLKISRVEAEDVGVYYCSQSTHVPYTFGQGTKLEIK
notes: IgG format
Take B1: the equilibrium dissociation constant (Kd) in test [1] was 1770 nM; in test [2], 484 nM.

B2: hJovi-1 variant IgG, VH T28K, Y32F, A100N, Y102L, N103W; VL N35K (antibody, V domains shown)
VH: B1 VH with Y102L, Q103W
VL: B1 VL with N35K
notes: IgG format
Regarding B2, the binding result in test [1] is on record as “no binding”. Further, the Kd in test [2] was 1720 nM.

B3: hJovi-1 variant IgG, VH T28K, Y32F, A100N, N103W; VL unmutated (antibody, V domains shown)
VH: B1 VH with Q103W
VL: B1 VL
notes: IgG format
Take B3: the dissociation constant (Kd) in test [1] is 1650 nM; in test [2], 425 nM.

B4: hJovi-1 variant IgG, VH T28K, Y32F, A100N, Y102F, N103M; VL N35K (antibody, V domains shown)
VH: B1 VH with Y102F, Q103M
VL: B1 VL with N35K
notes: IgG format
As for B4, the Kd in test [1] was found to be 9310 nM; in test [2] it was 909 nM.

B5: hJovi-1 variant IgG, VH T28K, Y32F, A100N, Y102L, N103M; VL N35R (antibody, V domains shown)
VH: B1 VH with Y102L, Q103M
VL: B1 VL with N35R
notes: IgG format
Turning to B5, in test [1], the binding result is on record as “no binding”. The equilibrium dissociation constant (Kd) in test [2] came out at 1900 nM.

B6: hJovi-1 variant IgG, VH T28K, Y32F, A100N, Y102L, N103W; VL N35R (antibody, V domains shown)
VH: B1 VH with Y102L, Q103W
VL: B1 VL with N35R
notes: IgG format
Turning to B6, in test [1], the binding result is on record as “no binding”. Also, the Kd in test [2] stood at 1510 nM.

B7: hJovi-1 variant IgG, VH T28K, Y32F, A100N, Y102F, N103M; VL N35R (antibody, V domains shown)
VH: B1 VH with Y102F, Q103M
VL: B1 VL with N35R
notes: IgG format
In the case of B7, the dissociation constant (Kd) in test [1] was 7910 nM; in test [2], 968 nM.

B8: hJovi-1 variant IgG, VH T28K, Y32F, A100N; VL N35F (antibody, V domains shown)
VH: B1 VH with Q103N
VL: B1 VL with N35F
notes: IgG format
Regarding B8, the Kd in test [1] is 2810 nM; in test [2] it was 646 nM.

B9: hJovi-1 variant IgG, VH T28K, Y32F, A100N, Y102F, N103M; VL N35F (antibody, V domains shown)
VH: B1 VH with Y102F, Q103M
VL: B1 VL with N35F
notes: IgG format
Regarding B9, the Kd in test [1] worked out at 11300 nM; in test [2], 1320 nM.

B10: hJovi-1 variant IgG, VH T28K, Y32F, A100N; VL N35K (antibody, V domains shown)
VH: B1 VH with Q103N
VL: B1 VL with N35K
notes: IgG format
For the molecule B10, the figures for the Kd in test [1] and in test [2] were 1000 nM and 192 nM, respectively.

B11: hJovi-1 variant IgG, VH T28K, Y32F, A100N, N103Y; VL unmutated (antibody, V domains shown)
VH: B1 VH with Q103Y
VL: B1 VL
notes: IgG format
Take B11: the dissociation constant (Kd) in test [1] amounted to 1580 nM; in test [2], 339 nM.

B12: hJovi-1 variant IgG, VH T28K, Y32F, A100N, N103S; VL unmutated (antibody, V domains shown)
VH: B1 VH with Q103S
VL: B1 VL
notes: IgG format
With B12, the Kd in test [1] worked out at 3540 nM; in test [2], 983 nM.

B13: hJovi-1 variant IgG, VH T28K, Y32F, A100N, Y102F; VL unmutated (antibody, V domains shown)
VH: B1 VH with Y102F, Q103N
VL: B1 VL
notes: IgG format
For B13, in test [1], the binding result was “no binding”. Further, the dissociation constant (Kd) in test [2] came out at 2610 nM.

B14: hJovi-1 variant IgG, VH T28K, Y32F, A100N, Y102F; VL N35R (antibody, V domains shown)
VH: B1 VH with Y102F, Q103N
VL: B1 VL with N35R
notes: IgG format
For B14, the Kd in test [1] is 18900 nM; in test [2], 2700 nM.
